# Reference: IntAct's records for PubMed 26840340
# B1: Islet amyloid polypeptide (Homo sapiens), P10997 (parent)
# chain: MGILKLQVFLIVLSVALNHLKATPIESHQVEKRKCNTATCATQRLANFLVHSSNNFGAILSSTNVGSNTYGKRNAVEVLKREPLNYLPL
# Variants of: B1
# Details: with bace1_human BACE1, P56817
# Chain of bace1_human BACE1, P56817 (P56817 whole entry): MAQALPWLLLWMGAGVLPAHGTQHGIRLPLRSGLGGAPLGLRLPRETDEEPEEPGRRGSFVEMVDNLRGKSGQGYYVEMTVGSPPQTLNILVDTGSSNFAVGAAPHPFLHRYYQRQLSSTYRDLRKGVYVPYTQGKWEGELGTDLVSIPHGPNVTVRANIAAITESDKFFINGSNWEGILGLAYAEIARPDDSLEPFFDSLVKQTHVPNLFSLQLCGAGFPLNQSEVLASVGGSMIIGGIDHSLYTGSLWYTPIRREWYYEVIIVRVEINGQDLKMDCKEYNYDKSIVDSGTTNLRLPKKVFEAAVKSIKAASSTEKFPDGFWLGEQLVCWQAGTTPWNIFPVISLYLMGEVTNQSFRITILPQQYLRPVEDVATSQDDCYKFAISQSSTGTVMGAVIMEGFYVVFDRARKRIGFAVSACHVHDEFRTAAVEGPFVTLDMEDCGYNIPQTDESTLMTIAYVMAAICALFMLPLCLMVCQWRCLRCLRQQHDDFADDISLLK
row,Variant,effect of a mutation on the interaction
1,F56K,with no effect
